Publication PMC6416295

Assays:
[1] = tested on: HlyU (Vibrio vulnificus MO6-24/O); test: EMSA; details: 10 mM Tris-Cl pH 7.5, 50 mM KCl, 5 mM MgCl2, 5% glycerol, 0.1 ug poly(dI-dC) in 20 ul, 5 nM DNA, 25 C, 0.5 h; 6% native PAGE
[2] = tested on: HlyU (Vibrio vulnificus MO6-24/O); test: EMSA; details: 10 mM Tris-Cl pH 7.5, 50 mM KCl, 5 mM MgCl2, 5% glycerol, 0.1 ug poly(dI-dC) in 20 ul, 5 nM DNA, 25 C, 0.5 h; 6% native PAGE; remark: listed apart in the source

Which results are given for PrtxA 264-bp?
Kd [1]: 25.2 nM; Kd [2]: 54.8 nM
